Data published in the supplement of paper PMC10065799, “High-throughput profiling of sequence recognition by tyrosine kinases and SH2 domains using bacterial peptide display” (eLife, 2023).

How the values were obtained:
AncSZ = experiment: phosphorylation enrichment, bacterial display (enrichment ratio); higher = better substrate or ligand; peptides without Tyr show the background
EPHB1 = EPHB1 (UniProt P54762); experiment: as above
EPHB2 = EPHB2 (UniProt P29323); experiment: as above
FGFR1 = FGFR1 (UniProt P11362); experiment: as above
FGFR3 = FGFR3 (UniProt P22607); experiment: as above
Fer (mouse) = experiment: as above
Fes = Fes (UniProt P07332); experiment: as above
Fyn = Fyn (UniProt P06241); experiment: as above
Hck = Hck (UniProt P08631); experiment: as above
Jak2 = Jak2 (UniProt O60674); experiment: as above
MERTK = MERTK (UniProt Q12866); experiment: as above
c-Abl (mouse) = experiment: as above
c-Src = experiment: as above
Grb2 SH2 = Grb2 SH2 (UniProt P62993); experiment: SH2 binding enrichment of the phosphorylated peptide, bacterial display (enrichment ratio); higher = better substrate or ligand; peptides without Tyr show the background
SHP2-C SH2 = experiment: as above
c-Src SH2 = experiment: as above
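For SH2 binding enrichment of the phosphorylated peptide, bacterial display in this document: peptide library displayed on the E. coli surface as eCPX fusions, selected cells deep-sequenced, score is each peptide's frequency after selection divided by its frequency in the input.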
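For phosphorylation enrichment, bacterial display in this document: 11-residue human phosphosite peptides and single-mutation variants displayed on the E. coli surface, counted by deep sequencing, each peptide's frequency after selection divided by its frequency in the unselected input library; frequency after pTyr selection over input frequency; kinase dosed for 20-30% of maximal phosphorylation in three min.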

Sequence of FGFR3 (P22607 whole entry, looked up): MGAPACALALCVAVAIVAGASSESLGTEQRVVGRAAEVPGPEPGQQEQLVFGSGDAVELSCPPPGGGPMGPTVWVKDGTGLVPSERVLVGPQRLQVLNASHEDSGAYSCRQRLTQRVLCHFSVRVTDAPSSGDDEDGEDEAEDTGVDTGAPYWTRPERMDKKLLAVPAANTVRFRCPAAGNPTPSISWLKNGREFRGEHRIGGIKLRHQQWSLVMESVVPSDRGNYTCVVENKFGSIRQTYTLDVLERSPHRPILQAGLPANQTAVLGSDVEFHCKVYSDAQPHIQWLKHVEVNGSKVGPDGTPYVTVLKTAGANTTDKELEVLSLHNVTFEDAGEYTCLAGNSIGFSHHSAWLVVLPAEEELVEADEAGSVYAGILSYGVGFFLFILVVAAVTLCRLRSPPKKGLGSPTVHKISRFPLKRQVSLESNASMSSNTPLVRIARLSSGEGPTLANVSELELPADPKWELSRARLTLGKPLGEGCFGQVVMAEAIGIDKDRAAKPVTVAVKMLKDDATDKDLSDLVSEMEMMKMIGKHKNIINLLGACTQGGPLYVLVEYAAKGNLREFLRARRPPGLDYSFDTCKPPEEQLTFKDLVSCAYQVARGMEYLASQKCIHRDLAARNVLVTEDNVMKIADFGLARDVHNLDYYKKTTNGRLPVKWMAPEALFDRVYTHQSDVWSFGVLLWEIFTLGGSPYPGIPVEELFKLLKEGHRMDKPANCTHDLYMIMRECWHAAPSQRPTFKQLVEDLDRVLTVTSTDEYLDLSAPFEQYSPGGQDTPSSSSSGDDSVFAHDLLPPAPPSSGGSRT
Sequence of EPHB2 (P29323 whole entry, looked up): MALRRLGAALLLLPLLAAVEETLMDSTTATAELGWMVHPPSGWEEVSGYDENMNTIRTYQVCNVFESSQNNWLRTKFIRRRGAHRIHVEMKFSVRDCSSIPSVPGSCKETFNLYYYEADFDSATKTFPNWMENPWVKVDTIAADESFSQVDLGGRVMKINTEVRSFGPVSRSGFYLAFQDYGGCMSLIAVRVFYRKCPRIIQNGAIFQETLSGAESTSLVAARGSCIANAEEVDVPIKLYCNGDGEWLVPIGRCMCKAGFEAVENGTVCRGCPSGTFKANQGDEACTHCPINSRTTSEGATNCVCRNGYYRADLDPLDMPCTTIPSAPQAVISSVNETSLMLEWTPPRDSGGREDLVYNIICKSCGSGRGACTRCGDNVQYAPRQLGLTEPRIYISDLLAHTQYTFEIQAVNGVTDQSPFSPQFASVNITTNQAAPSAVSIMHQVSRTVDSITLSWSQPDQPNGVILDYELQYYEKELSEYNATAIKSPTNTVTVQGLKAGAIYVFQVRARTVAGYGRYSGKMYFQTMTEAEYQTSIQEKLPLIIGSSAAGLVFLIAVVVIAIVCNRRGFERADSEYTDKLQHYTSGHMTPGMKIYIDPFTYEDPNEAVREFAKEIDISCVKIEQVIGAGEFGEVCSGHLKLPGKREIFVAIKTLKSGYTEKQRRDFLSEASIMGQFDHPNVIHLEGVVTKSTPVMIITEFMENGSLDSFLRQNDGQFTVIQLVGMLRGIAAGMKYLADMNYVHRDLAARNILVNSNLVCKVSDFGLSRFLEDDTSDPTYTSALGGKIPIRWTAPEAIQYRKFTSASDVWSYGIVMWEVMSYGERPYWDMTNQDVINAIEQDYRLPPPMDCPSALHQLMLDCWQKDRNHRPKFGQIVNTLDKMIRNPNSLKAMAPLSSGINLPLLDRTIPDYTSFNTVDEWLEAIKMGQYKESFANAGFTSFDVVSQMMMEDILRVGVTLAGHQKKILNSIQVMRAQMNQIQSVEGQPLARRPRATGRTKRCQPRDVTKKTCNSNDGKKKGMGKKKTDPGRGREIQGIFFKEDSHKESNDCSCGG
Sequence of Fyn (P06241 whole entry, looked up): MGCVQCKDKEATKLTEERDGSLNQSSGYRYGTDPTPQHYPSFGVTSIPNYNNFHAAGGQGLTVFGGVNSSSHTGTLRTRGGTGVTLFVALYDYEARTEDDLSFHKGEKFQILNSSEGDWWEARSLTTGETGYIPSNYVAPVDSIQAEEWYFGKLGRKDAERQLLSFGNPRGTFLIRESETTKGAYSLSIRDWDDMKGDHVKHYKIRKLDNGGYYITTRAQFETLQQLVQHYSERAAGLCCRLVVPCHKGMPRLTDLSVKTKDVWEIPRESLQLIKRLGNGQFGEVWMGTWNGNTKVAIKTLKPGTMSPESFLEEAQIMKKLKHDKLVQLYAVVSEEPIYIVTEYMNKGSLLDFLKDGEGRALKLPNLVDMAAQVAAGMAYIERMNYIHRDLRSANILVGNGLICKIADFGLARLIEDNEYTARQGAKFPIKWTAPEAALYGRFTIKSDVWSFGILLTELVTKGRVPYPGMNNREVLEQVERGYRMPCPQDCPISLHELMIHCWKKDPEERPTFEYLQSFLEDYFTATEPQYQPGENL
Sequence of Grb2 SH2 (P62993 whole entry, looked up): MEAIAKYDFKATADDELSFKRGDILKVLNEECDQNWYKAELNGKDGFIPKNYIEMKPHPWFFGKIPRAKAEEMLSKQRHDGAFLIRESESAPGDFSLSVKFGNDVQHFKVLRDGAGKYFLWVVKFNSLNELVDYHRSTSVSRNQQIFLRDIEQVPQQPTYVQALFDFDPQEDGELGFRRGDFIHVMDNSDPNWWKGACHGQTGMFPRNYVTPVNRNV
Sequence of EPHB1 (P54762 whole entry, looked up): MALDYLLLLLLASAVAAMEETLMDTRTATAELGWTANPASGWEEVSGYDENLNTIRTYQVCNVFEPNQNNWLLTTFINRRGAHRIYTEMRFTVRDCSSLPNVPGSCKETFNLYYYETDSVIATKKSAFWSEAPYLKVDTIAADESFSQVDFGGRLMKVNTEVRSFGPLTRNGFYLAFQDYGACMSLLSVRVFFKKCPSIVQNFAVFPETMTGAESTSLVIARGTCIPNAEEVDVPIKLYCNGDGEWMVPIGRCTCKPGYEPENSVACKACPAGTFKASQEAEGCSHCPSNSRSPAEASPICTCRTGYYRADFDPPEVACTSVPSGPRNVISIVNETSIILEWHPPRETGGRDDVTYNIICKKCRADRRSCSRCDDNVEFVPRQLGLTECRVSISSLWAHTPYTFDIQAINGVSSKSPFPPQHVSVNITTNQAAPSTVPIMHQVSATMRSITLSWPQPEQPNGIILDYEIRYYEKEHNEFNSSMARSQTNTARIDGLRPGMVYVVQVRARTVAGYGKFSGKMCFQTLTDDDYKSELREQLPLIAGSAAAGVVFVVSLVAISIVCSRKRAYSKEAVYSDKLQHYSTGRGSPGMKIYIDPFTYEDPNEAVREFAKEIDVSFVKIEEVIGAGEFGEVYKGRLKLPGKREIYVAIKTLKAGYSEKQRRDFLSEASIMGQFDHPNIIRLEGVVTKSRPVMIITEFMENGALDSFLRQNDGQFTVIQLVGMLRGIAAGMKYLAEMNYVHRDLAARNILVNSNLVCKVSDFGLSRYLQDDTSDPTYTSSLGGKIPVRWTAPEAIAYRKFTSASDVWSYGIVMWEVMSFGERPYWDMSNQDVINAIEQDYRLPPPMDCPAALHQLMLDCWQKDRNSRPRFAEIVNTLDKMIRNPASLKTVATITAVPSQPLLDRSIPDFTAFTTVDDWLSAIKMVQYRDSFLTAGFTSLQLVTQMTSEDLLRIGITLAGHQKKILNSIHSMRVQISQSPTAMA
Sequence of Jak2 (O60674 whole entry, looked up): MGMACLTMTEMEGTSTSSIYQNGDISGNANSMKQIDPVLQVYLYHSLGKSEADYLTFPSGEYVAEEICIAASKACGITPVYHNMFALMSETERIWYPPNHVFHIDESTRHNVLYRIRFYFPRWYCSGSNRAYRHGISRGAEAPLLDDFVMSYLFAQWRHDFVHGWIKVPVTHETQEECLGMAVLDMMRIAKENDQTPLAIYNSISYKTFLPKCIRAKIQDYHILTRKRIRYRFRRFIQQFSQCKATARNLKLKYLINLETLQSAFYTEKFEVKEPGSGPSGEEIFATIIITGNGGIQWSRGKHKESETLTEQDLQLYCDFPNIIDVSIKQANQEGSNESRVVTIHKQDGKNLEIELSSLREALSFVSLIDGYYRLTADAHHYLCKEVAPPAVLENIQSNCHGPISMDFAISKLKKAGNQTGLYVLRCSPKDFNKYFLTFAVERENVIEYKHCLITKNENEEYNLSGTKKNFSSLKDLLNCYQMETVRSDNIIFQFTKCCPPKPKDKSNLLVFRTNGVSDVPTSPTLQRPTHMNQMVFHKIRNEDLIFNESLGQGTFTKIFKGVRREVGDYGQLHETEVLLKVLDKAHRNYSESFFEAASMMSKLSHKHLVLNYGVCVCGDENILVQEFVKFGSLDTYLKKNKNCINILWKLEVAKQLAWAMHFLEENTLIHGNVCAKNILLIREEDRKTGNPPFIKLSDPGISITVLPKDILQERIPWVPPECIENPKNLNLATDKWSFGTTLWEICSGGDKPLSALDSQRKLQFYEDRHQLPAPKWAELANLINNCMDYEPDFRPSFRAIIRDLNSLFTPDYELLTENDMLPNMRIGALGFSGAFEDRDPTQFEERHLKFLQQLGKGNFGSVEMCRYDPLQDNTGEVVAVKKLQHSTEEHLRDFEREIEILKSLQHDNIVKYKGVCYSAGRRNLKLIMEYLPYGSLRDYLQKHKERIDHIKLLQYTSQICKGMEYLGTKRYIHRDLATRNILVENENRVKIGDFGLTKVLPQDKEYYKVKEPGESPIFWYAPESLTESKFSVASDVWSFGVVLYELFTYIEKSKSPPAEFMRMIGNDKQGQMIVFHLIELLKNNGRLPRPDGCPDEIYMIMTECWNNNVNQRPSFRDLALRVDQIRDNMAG

Row | Sequence | phosphorylation enrichment (AncSZ) | phosphorylation enrichment (EPHB1) | phosphorylation enrichment (EPHB2) | phosphorylation enrichment (FGFR1) | phosphorylation enrichment (FGFR3) | phosphorylation enrichment (Fer (mouse)) | phosphorylation enrichment (Fes) | phosphorylation enrichment (Fyn) | phosphorylation enrichment (Hck) | phosphorylation enrichment (Jak2) | phosphorylation enrichment (MERTK) | phosphorylation enrichment (c-Abl (mouse)) | phosphorylation enrichment (c-Src) | SH2 binding enrichment (Grb2 SH2) | SH2 binding enrichment (SHP2-C SH2) | SH2 binding enrichment (c-Src SH2)
1 | SVTCTYSPALH [TP53_Y126_N131H] | 1.28 | 0.71 | 0.62 | 0.487 | 0.724 | 0.492 | 1.41 | 0.545 | 0.556 | 1.23 | 0.413 | 0.808 | 0.741 | 0.617 | 0.532 | 0.402
2 | SVTCTYSPARN [TP53_Y126_L130R] | 1.22 | 0.576 | 0.654 | 0.53 | 0.756 | 0.554 | 1.37 | 0.489 | 0.56 | 1.06 | 0.449 | 0.84 | 0.555 | 0.793 | 0.613 | 0.371
3 | SVTCTYSPGLN [TP53_Y126_A129G] | 1.42 | 0.761 | 0.686 | 0.511 | 0.998 | 0.609 | 1.57 | 0.525 | 0.595 | 1.46 | 0.454 | 1.05 | 0.612 | 0.723 | 0.469 | 0.444
4 | SVVVPYELPEV [TP53_Y220_P222L] | 1.65 | 0.643 | 0.659 | 0.553 | 0.723 | 0.581 | 1.29 | 0.503 | 0.58 | 1.09 | 0.47 | 0.848 | 0.545 | 0.765 | 0.614 | 1.78
5 | SYCYRYRCAAR [SUMF1_Y344] | 0.789 | 0.309 | 0.512 | 0.538 | 0.448 | 0.37 | 0.651 | 0.484 | 0.386 | 0.728 | 0.549 | 0.776 | 0.54 | 0.717 | 0.608 | 0.419
6 | SYSGEYGSGGG [ZG16_Y30_G32S] | 0.763 | 0.454 | 0.429 | 0.419 | 0.512 | 0.462 | 0.696 | 0.417 | 0.534 | 0.727 | 0.53 | 0.596 | 0.545 | 0.782 | 0.794 | 0.495
7 | TACNPYKPPGP | 0.605 | 0.733 | 0.417 | 0.354 | 0.437 | 0.449 | 0.717 | 0.469 | 0.384 | 0.521 | 0.393 | 1.14 | 0.46 | 1.07 | 0.838 | 0.786
8 | TCRPPYFHRNC [HGD_Y333_F329C_YF] | 1.05 | 0.215 | 0.686 | 0.255 | 0.568 | 0.334 | 1.06 | 0.4 | 0.548 | 0.914 | 0.758 | 0.878 | 0.314 | 1.45 | 0.9 | 1
9 | TDEYEYDELIV [TGM1_Y136] | 1.3 | 0.588 | 0.566 | 0.664 | 0.805 | 0.526 | 1.2 | 0.57 | 0.775 | 0.785 | 0.436 | 0.705 | 0.454 | 1.07 | 0.761 | 0.786
10 | TDLAFYLVRKG [ASL_Y376_YF] | 1.4 | 0.65 | 0.725 | 0.497 | 0.988 | 0.541 | 1.27 | 0.545 | 0.67 | 0.946 | 0.506 | 0.611 | 0.361 | 1.07 | 0.662 | 0.693
11 | TDVSLYPSGGT [TENM4_Y399] | 0.676 | 0.331 | 0.512 | 0.355 | 0.428 | 0.535 | 0.552 | 0.353 | 0.409 | 0.578 | 0.435 | 0.585 | 0.269 | 0.577 | 0.8 | 0.405
12 | TEAEPYYRSLR [NPHS1_Y1138] | 0.7 | 0.422 | 0.425 | 0.458 | 0.609 | 0.425 | 0.824 | 0.373 | 0.503 | 0.809 | 0.371 | 0.722 | 0.512 | 0.961 | 0.864 | 0.707
13 | TEAGNYKLCFD [TMED1_Y103_D102N] | 1.12 | 0.53 | 0.577 | 0.627 | 0.749 | 0.492 | 1.05 | 0.505 | 0.549 | 1.17 | 0.453 | 0.785 | 0.424 | 0.924 | 0.538 | 0.466
14 | TESNNYIFKTL [FAM83B_Y637_YF] | 1.26 | 0.604 | 1.06 | 0.645 | 0.82 | 0.597 | 1.12 | 0.528 | 0.643 | 0.926 | 0.664 | 0.762 | 0.642 | 0.879 | 1.2 | 0.492
15 | TFEYRYLEDQD [CNOT3_Y746_R750Q] | 1.22 | 0.566 | 0.553 | 0.77 | 0.823 | 0.518 | 1.15 | 0.438 | 0.637 | 0.916 | 0.44 | 0.673 | 0.54 | 0.772 | 0.478 | 0.66
16 | TFSPPYYHRNC [HGD_Y333_R330S] | 0.822 | 0.45 | 0.52 | 0.565 | 0.654 | 0.497 | 0.813 | 0.5 | 0.531 | 0.83 | 0.526 | 0.612 | 0.535 | 1.06 | 0.859 | 0.703
17 | TIQRMYGCDVG [HLA-A_Y123_I121R] | 0.761 | 0.504 | 0.57 | 0.56 | 0.598 | 0.46 | 1.05 | 0.442 | 0.45 | 0.789 | 0.448 | 0.775 | 0.594 | 0.636 | 0.968 | 0.479

Row | Sequence | phosphorylation enrichment (AncSZ) | phosphorylation enrichment (EPHB1) | phosphorylation enrichment (EPHB2) | phosphorylation enrichment (FGFR1) | phosphorylation enrichment (FGFR3) | phosphorylation enrichment (Fer (mouse)) | phosphorylation enrichment (Fes) | phosphorylation enrichment (Fyn) | phosphorylation enrichment (Hck) | phosphorylation enrichment (Jak2) | phosphorylation enrichment (MERTK) | phosphorylation enrichment (c-Abl (mouse)) | phosphorylation enrichment (c-Src) | SH2 binding enrichment (Grb2 SH2) | SH2 binding enrichment (SHP2-C SH2) | SH2 binding enrichment (c-Src SH2)
18 | TIQSMYGCDVG [HLA-B_Y123_L119I] | 0.886 | 0.502 | 0.48 | 0.579 | 0.602 | 0.48 | 1.04 | 0.427 | 0.502 | 0.794 | 0.559 | 0.68 | 0.517 | 0.909 | 1.01 | 0.581
19 | TLKDVCDDGKY [RPS6KA3_Y483_Y483C] | 0.93 | 0.569 | 0.624 | 0.53 | 0.594 | 0.456 | 1.2 | 0.434 | 0.622 | 0.841 | 0.437 | 0.664 | 0.507 | 1.05 | 0.851 | 0.594
20 | TMKSHYMELYD [BBS2_Y644_R643H] | 0.807 | 0.971 | 0.683 | 0.568 | 0.64 | 0.453 | 1.01 | 0.69 | 0.953 | 0.864 | 1.34 | 0.693 | 1.2 | 1.22 | 1.84 | 10.3
21 | TMKSRYMELFD [BBS2_Y644_YF] | 0.765 | 0.523 | 0.437 | 0.482 | 0.667 | 0.382 | 0.914 | 0.447 | 0.48 | 0.71 | 0.42 | 0.613 | 0.418 | 0.945 | 0.634 | 4.89
22 | TNLVPYPRIHF [TUBA1A_Y262] | 0.501 | 1.18 | 0.422 | 0.445 | 0.471 | 0.449 | 0.655 | 0.378 | 0.369 | 0.624 | 0.413 | 0.781 | 0.392 | 0.997 | 0.842 | 0.619
23 | TQKLAYMELQQ [CENPF_Y700] | 0.776 | 0.482 | 0.454 | 0.596 | 0.629 | 0.513 | 0.907 | 0.455 | 0.52 | 0.794 | 0.527 | 0.94 | 0.509 | 0.934 | 1.17 | 0.931
24 | TRSFDYTEGGD [FGF7_Y58_M59T_YF] | 1.23 | 0.569 | 0.519 | 0.52 | 0.625 | 0.572 | 1.19 | 0.513 | 0.501 | 0.975 | 0.503 | 0.659 | 0.431 | 0.87 | 0.494 | 0.513
25 | TRVMEYISRLD [CLTCL1_Y1043] | 0.762 | 0.35 | 0.449 | 0.344 | 0.44 | 0.353 | 0.694 | 0.381 | 0.511 | 0.637 | 0.325 | 0.565 | 0.358 | 1.03 | 0.931 | 0.655
26 | TSESSYFKSLN [NGEF_Y288_A286S_YF] | 0.766 | 0.433 | 0.37 | 0.41 | 0.705 | 0.436 | 0.91 | 0.395 | 0.455 | 0.67 | 0.362 | 0.636 | 0.411 | 0.776 | 0.553 | 0.437
27 | TSFSGYRFHRH [NKAPL_Y94_YF] | 0.558 | 0.429 | 0.471 | 0.44 | 0.677 | 0.384 | 0.788 | 0.472 | 0.515 | 0.546 | 0.452 | 0.601 | 0.579 | 1.28 | 1.01 | 0.942
28 | TSSAGYRRTPS [ABI1_Y333_G331A] | 0.565 | 0.42 | 0.497 | 0.499 | 0.491 | 0.36 | 0.594 | 0.484 | 0.446 | 0.476 | 0.392 | 0.576 | 0.444 | 1.03 | 0.405 | 0.45
29 | TTKGAYSLSVR [YES1_Y194_I198V] | 0.894 | 0.404 | 0.5 | 0.405 | 0.548 | 0.403 | 0.73 | 0.317 | 0.483 | 0.511 | 0.364 | 0.517 | 0.376 | 0.768 | 0.558 | 0.402
30 | TTKGSYSLSVR [HCK_Y180] | 0.674 | 0.448 | 0.43 | 0.558 | 0.582 | 0.388 | 0.727 | 0.461 | 0.433 | 1.04 | 0.455 | 0.624 | 0.568 | 0.876 | 0.664 | 0.51
31 | TVHCDYLNISH [TAF1L_Y1385_P1389S] | 1.1 | 1.55 | 0.634 | 2.38 | 1.69 | 0.546 | 1.04 | 0.451 | 0.562 | 1.29 | 0.373 | 0.663 | 0.588 | 1.17 | 0.58 | 0.567
32 | TVHPGYGFLSE [PCCA_Y143_A138T] | 0.717 | 0.455 | 0.467 | 0.393 | 0.478 | 0.425 | 0.747 | 0.384 | 0.488 | 0.676 | 0.396 | 0.529 | 0.566 | 0.941 | 0.962 | 0.433
33 | TVQVAYFTVMM [SPATA17_Y83_M86V_YF] | 1.44 | 0.838 | 0.758 | 0.729 | 1.09 | 0.842 | 1.55 | 0.595 | 0.61 | 1.3 | 0.486 | 0.921 | 0.666 | 0.775 | 0.651 | 0.415
